Assay results reported in patent US10005846 (LIFEARC, dated 2018).
Each block holds one binder with its values, some of them ahead of it.

Key:
[1] = biological target: T1, TG3 (human, UniProt Q08188); assay: ELISA, purified IgG at 0.1 ug/ml, plates coated with 100 ng of each TG [panel B]
T1 construct: recombinant, Zedira; also called recombinant human TG3; Epidermal Transglutaminase
T1 sequence (enzyme, looked up): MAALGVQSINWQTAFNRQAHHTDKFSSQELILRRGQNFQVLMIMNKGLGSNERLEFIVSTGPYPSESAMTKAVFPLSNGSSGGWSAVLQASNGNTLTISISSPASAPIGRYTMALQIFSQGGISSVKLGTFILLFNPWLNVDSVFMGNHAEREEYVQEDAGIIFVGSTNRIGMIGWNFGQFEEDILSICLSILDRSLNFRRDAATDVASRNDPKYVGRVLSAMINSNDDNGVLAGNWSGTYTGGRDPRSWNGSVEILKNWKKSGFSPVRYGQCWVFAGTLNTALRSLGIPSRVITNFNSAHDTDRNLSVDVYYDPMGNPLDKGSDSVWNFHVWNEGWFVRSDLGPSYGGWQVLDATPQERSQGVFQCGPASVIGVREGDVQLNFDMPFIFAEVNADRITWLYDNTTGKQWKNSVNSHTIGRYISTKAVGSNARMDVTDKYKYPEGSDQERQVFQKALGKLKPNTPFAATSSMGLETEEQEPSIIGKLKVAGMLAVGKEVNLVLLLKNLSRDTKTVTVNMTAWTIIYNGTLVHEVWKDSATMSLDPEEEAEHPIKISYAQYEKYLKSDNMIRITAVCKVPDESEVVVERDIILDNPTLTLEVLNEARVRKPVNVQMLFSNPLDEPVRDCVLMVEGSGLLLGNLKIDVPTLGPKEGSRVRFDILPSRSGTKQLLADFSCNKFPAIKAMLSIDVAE
Protocol: Conditioned medium or purified IgG were tested for reactivity to transglutaminase family members. The ability of each to bind to each transglutaminase (TG1, TG2, TG3, TG5, TG7 and Factor XIIIa; all Zedira) was determined using a plate binding assay. Microtiter plates (Costar, Cambridge, UK) were coated with recombinant TG (Zedira, Darmstadt, Germany) in 50 μl of 0.1 M bicarbonate/carbonate buffer (pH 9.6) overnight at 4° C. Plates were blocked for 2 h at 37° C. with 200 μl PBS containing 3% w/v BSA. Plates were washed three times with PBS containing 0.05% Tween 20 (washing buffer) and 100 μl of diluted conditioned medium (dilution 1:5 to 1:20) or purified anti-TG2 catalytic core mAbs was added. Plates were incubated for a further 1 h at room temperature. The washing step was repeated and anti-mouse gamma chain-horseradish peroxidase (1:5000) in PBS containing 0.05% Tween 20 (v:v) and 1% BSA (w:v) (Sigma, Poole UK) was added for 1 h. […] The reaction was stopped by adding 25 μl of 0.1 M H_2SO_4 and the absorbance at 450 nm was determined.

[2] = biological target: T2, cynomolgus monkey TG2 (cynomolgus monkey, UniProt A0A2K5VXI8 1-687); assay: ELISA on immobilised cynomolgus monkey TG2; r2 0.9992; EC50 95% confidence range 0.3040 to 0.3536 [panel A]
T2 construct: Bought recombinant protein; also called cynomogulus monkey TG2; cyano TG2
T2 sequence: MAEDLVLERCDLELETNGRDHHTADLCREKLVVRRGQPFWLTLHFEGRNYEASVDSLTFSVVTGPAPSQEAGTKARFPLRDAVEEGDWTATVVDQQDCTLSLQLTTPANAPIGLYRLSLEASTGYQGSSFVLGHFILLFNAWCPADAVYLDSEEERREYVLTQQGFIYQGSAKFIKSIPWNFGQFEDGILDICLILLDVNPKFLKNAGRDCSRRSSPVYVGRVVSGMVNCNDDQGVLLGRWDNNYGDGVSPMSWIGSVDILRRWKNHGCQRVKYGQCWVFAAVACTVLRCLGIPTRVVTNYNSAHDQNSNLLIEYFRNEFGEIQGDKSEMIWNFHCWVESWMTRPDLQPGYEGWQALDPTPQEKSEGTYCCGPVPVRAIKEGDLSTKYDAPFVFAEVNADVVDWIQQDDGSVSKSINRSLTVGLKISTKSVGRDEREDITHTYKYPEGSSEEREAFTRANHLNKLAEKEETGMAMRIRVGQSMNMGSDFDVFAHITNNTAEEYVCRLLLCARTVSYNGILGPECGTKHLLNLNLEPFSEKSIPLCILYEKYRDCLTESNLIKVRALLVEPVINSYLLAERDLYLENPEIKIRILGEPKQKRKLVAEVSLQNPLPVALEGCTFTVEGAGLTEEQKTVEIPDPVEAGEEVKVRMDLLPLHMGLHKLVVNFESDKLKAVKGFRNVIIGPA
Protocol: (§1) Antibody binding to human and cynomolgus monkey TG2 was determined in an ELISA assay. Clear polystyrene "Maxisorp" 96-well plates (Nunc) were coated with 50 ng purified human or cynomogulus monkey TG2 in 50 µl 0.05 M carbonate-bicarbonate buffer pH 9.6 at 4° C. overnight. Control wells were coated with 50 µl 100 µg/ml bovine serum albumin (BSA). Plates were washed 3× with 300 µl phosphate-buffered saline pH7.4 (PBS) containing 0.1% Tween 20 (PBST) and blocked with 300 µl 3% w/v Marvel skimmed milk in PBS for 1 hour at room temperature. After 3× wash with PBST, 50 µl protein-A purified chimeric or humanised anti-TG2 antibodies or human IgG1 kappa […] control antibody or CUB7402 (Abcam) were serially diluted 4-fold from a top concentration of 50 nM in PBS, and added to the plate in duplicate. […] After 3× washes with PBST, the plates were developed with 50 µl TMB substrate (Sigma) for 5 min at room temperature before stopping the reaction with 25 µl 0.5M H2SO4 and reading absorbance at 450 nm in a microtiter plate reader (BioTek EL808). Dose response curves were analysed and EC50 values and other statistical parameters determined using a 4-parameter logistical fit of the data (GraphPad Prism).

[3] = biological target: T2, cynomolgus monkey TG2; assay: ELISA on immobilised cynomolgus monkey TG2; r2 0.9383; EC50 95% confidence range 0.03303 to 0.08079 [panel B]
Protocol: as §1

binding result [1]: no binding (tested: 0.1 ug/ml)
B1: DC1 murine monoclonal antibody (antibody, V domains shown)
VH: EVQLVESGGGLVKPGGSLKLSCAASGFTLSTHAMSWVRQTPEKRLEWVATISSGGRSTYYPDSVKGRFTISRDNVKNTLYLQLSSLRSEDTAVYFCARLISTYWGQGTTLTVSS
VL: DITMTQSPSSIYASLGERVTITCKASQDINSYLTWFQQKPGKSPKILIYLVNRLVDGVPSRFSGSGSGQDYALTISSLEYEDMGIYYCLQYDDFPYTFGGGTKLEIK
notes: Mouse hybridoma IgG; heavy chain amplified with primer MHCG1, kappa light chain; also called mDC001

EC50 [2]: 0.328 nM
B2: cDD9001 chimeric antibody (murine DD9 variable regions) (antibody, human IgG1, V domains shown)
VH: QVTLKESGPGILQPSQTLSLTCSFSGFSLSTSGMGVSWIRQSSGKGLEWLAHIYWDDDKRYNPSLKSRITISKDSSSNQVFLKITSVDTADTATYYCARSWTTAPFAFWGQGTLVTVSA
VL: QIVLTQSPAIMSASPGEKVTMTCSASSSVDYMYWYQQKPGSSPRLLIYDTSNLASGVPVRFSGSGSGTSYSLTISRMGAEDAATYYCQQWNSSPLTFGAGTKLELK

EC50 [3]: 0.0517 nM
B3: cBB001 chimeric antibody (murine BB7 variable regions) (antibody, human IgG1, V domains shown)
VH: AVQLVESGGGLVKPGGSLKLSCAASGIIFSSSAMSWVRQTPEKRLEWVATISSGGRSTYYPDSVKGRFTVSRDSAKNTLYLQMDSLRSEDTAIYYCAKLISPYWGQGTTLTVSS
VL: AIKMTQSPSSMYASLGERVIITCKASQDINSYLTWFQQKPGKSPKTLIYLTNRLMDGVPSRFSGSGSGQEFLLTISGLEHEDMGIYYCLQYVDFPYTFGGGTKLEIK
notes: also called chimeric BB7
